In this experiment the target is T1, ROCK1 kinase domain (residue 1-415) protein (human, UniProt Q13464 1-415).
T1 construct: ROCK1 kinase domain, residues 1-415, expressed in Sf9 cells; source: Spodoptera frugiperda cells (Sf9)
The experiment is described as follows: SPR; Biacore T200; ROCK1 kinase domain immobilised on CM5 chip by amine coupling (3400 RU); full-length TRIM40 injected at eight concentrations, 30 μl/min, HBS-EP+ buffer (10 mM HEPES, 150 mM NaCl, 3 mM EDTA, 0.05% P20), 25 °C. The note with it: both partners purified.

T1 sequence (Q13464 1-415): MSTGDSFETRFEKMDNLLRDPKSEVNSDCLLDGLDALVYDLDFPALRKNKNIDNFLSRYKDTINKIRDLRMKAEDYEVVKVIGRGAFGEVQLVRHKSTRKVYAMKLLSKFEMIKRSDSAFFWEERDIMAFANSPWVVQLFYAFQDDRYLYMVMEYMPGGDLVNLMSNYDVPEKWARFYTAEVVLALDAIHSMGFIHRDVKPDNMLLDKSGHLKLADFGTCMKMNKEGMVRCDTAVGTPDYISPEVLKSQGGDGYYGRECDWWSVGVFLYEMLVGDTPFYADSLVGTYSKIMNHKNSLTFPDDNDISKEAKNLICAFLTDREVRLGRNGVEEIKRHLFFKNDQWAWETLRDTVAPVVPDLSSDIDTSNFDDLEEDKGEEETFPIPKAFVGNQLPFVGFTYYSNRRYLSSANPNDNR

B1: Full length TRIM40 protein (recombinant, for SPR) (natural protein, human, UniProt Q6P9F5 1-258, looked up)
chain: MIPLQKDNQEEGVCPICQESLKEAVSTNCGHLFCRVCLTQHVEKASASGVFCCPLCRKPCSEEVLGTGYICPNHQKRVCRFCEESRLLLCVECLVSPEHMSHHELTIENALSHYKERLNRRSRKLRKDIAELQRLKAQQEKKLQALQFQVDHGNHRLEAGPESQHQTREQLGALPQQWLGQLEHMPAEAARILDISRAVTQLRSLVIDLERTAKELDTNTLKNAGDLLNRSAPQKLEVIYPQLEKGVSELLLQPPQKL
notes: full length TRIM40 expressed in E. coli BL21 (DE3); source: Escherichia coli BL21 (DE3)
B1: the Kd (in general, the free concentration of one partner at which half of the binding sites on the other are occupied at equilibrium, for simple one-to-one binding) worked out at 2250 nM.

The values above are taken from PMC9908899, “TRIM40 is a pathogenic driver of inflammatory bowel disease subverting intestinal barrier integrity” (Nature Communications, 2023).
